In the nanobody polyreactivity screen of Harvey et al. (2022):

Assay: yeast display, Sf9 membrane polyspecificity reagent, FACS + sequencing; frameworks hold sequencing errors
Outline: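 Nanobodies came from a synthetic yeast display library in Saccharomyces cerevisiae BJ5465, induced with galactose for 36–48 hours and stained for 1 hour at 4 °C with 10% biotinylated, detergent-solubilized Sf9 membrane reagent. Cells were enriched on streptavidin microbeads and then FACS-sorted, with low and high (top ~1%) gates set on anti-HA fluorescence for expression and streptavidin fluorescence for reagent binding. Each polyreactivity label reflects the gate a clone came from. Genes were amplified by colony PCR, sequenced by MiSeq 2 × 250 and filtered by CDR length.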

| Sequence | polyreactivity (PSR sort gate) |
| --- | --- |
| QVQLVESGGGLVQAGGSLRLSCAACGGIFWHYTLGWYRKAPGKERELVAAITRRGGSTYYADSVMGRFTISRDNAKNTVYLQMNSLKPEDTAVYYCAADFLPQSYNWYDYWGQGTQVTVSS | low polyreactivity |
| QVQLVESGGGLVQAGGSLRLSCAACGLTFDDYAMGWSRQAPGKERELVAAISKSGDGTYYADSVKGRFTISRDNAKNTVYLQMNSLKPEDTAVYYCNADAKYWGFVYWWFGEDNWGQGTQVPVSS | low polyreactivity |
| QVQLVESGGGLVQAGGSLRLSCAACGRIFGENAMGWYRQAPGKERELVASISSTDSTYYADSVKGRFTISRDNAKNTVYLQMNSLKPEDTAVYYSAARWISVWSEGAEHDYWGQGTQVTVSS | low polyreactivity |
| QVQLVESGGGLVQAGGSLRLSCAACGRIFNRYAMGWYRQAPGKERELVAAIRYSGGRTYYADSVKGRFTISRDNAKNTVYLQMNSLKPEDTAVYYCAADGQWYYAPFRGGDYENDYWGQGTQVTVSS | low polyreactivity |
| QVQLVESGGGLVQAGGSLRLSCAACGSIFYWNAMVWYRQAPGKERELVAAINSGDSTNYADSVKGRFTISRDNAKNTVYFQMNSLKPEDTAVYYCAASIYAALNGGPGYDYWGLGTQVTVSS | low polyreactivity |
| QVQLVESGGGLVQAGGSLRLSCAANGYIFLIYDRGWYRQSPGKEMELVAAISNSVGSTYADSVKGRFTISRDNAKNTDYLQMNSLKPEDTAVYYCNADSGPIDGRGGYWGQGTQVTVSS | low polyreactivity |
| QVQLVESGGGLVQAGGSLRLSCAANTMGCYRQAPGKERELVAAINTGSSTYYADSVKGRFRISRDNAKNTVYLQMYCLKPEDTAVYYCNASYPPYFEYRTRQYNYWGQGTQVTVSS | low polyreactivity |
| QVQLVESGGGLVQAGGSLRLSCAAPGSTFYLYAMGWYRQAPGKERELVAAISSGGRTNYADSVKGRFTISRDNAKNTVYLQMNSLKPEDTAVYYCAARIQCPTWSLYYYWGQGTQVTVSS | high polyreactivity |
| QVQLVESGGGLVQAGGSLRLSCAASAFIFRFYTMGWYRQATGKETELVAAITSRGDRTYYADSVKRRFTISRENAKNPVYLQMNSLKPEDTAVYYCAKATRGYRSPYGSIGYYYRGQGTQVTVSS | high polyreactivity |
| QVQLVESGGGLVQAGGSLRLSCAASAGILRQNTMGWYRQAPGKERELVAAISSSGGRTYYADSVKGRFTISRDNAKNTVYLKMNSLIPDDPAVYYCAGKIVSRYRVIYDYWGQGTQVTVSS | high polyreactivity |
| QVQLVESGGGLVQAGGSLRLSCAASALTFFYYAMGWYRQAPGKERELVAAISWSGGRTYYADSVKGRFTISRDNAKNTVYLQMNSLKPEDTAVYYCSADYITAHSSYSTYGYWGQGTQVTVSS | low polyreactivity |
| QVQLVESGGGLVQAGGSLRLSCAASARIIGTYAMGWYRQATGKERELVAASTRGGTTYYADSVKGRFTISRDNAKNTVYLQMNSLIPEDTAVYYCATGPAIRYDYWGQGTQVTVSS | low polyreactivity |
| QVQLVESGGGLVQAGGSLRLSCAASARIIYSNAMGWYRQAPGKERELVATISTGGSTYADSVKGRFTISRDNAKNTVYLQINSLKPEDTAVYYCAVDEWRWRVGAVAYYYWGQGTQVTVSS | low polyreactivity |
| QVQLVESGGGLVQAGGSLRLSCAASARILRRNAMGWYRQAPGKEREFVAAITWRGGSTYYADSVKGRFTISRDNAKNTVYLQMNSLKPEDTAVYYCAADTYSVEYVLPYYYWGQGTQVTVSS | high polyreactivity |
| QVQLVESGGGLVQAGGSLRLSCAASARNFGYYAMGWYRPAPGKERELVAAISSGGNTYYADSVKGRFTISRDNAKNTVYLQMNSLKPEDTAVYYCNVVYVGWQYGYDYWGQGTQVTVSS | low polyreactivity |
| QVQLVESGGGLVQAGGSLRLSCAASARTFSRSALGWARQAPGKERELVAAISWSGGSTYYADSVKGRFTISRDKAKNSVYLQMNSLNPEDTAVYYCAAYSRWLPAYDYWGQGTQVTVSS | high polyreactivity |
| QVQLVESGGGLVQAGGSLRLSCAASARTYGANAMGRYRQAPGKERELVAAISYHGTRTYYADSVKGRFTISRDNAKNTVYLQMNSLKPEDTAVYYCAAVCKPGVYQEGDEWGQGTQVTVSS | high polyreactivity |
| QVQLVESGGGLVQAGGSLRLSCAASASIFRYYAMGWYRQAPGKERELVAAISYSGGSTYYADSVKGRFTISRDNAKNTVYLQMNSLKPEDTAVYYCAVPLICVDGYAYDYWGQGTQVTVSS | low polyreactivity |
| QVQLVESGGGLVQAGGSLRLSCAASASIFYQNAMGWYRQAPGKERELVAAISSAGSTYYADSVKGRFTISRDNAKNTVYLQMNSVKPEDTAVYYLLRGQGTQVTVSS | low polyreactivity |
| QVQLVESGGGLVQAGGSLRLSCAASASIFYRYAMGWFRQAPGKERELVAAISWRVTSTYYADSVKGRFTISRDNSKNTVYLQMNSLKPEDTAVYYCATAGTYTGGEGYWGQGTQVTVSS | high polyreactivity |
| QVQLVESGGGLVQAGGSLRLSCAASASTFGSYAMGWYRQAPGKERELVAAISRAGSTYADSVKGRFTISRDNAKNTVYLQMNSLKTEDTAVYYCAKRDYALYYGYDYWGQGTQVTVSS | low polyreactivity |

| Sequence | polyreactivity (PSR sort gate) |
| --- | --- |
| QVQLVESGGGLVQAGGSLRLSCAASASTFVYNAKGWYRQAPGKERELVASITRSGSSTYYADSVKGRFTISRDNAKNTVYLQMNSLKPEDTAVYYCDVRYSVLSNYRYYYWGQGTQVTVSS | low polyreactivity |
| QVQLVESGGGLVQAGGSLRLSCAASASTLYSYAMGWYRQAPGKEREFVAAITSDDGSKYYADSVKGRFTISRDNAKNTVYLQMNSLKQEDTAVYYCATAASVEYNYWGEGTQVTVSS | low polyreactivity |
| QVQLVESGGGLVQAGGSLRLSCAASAYAMGWYRQAPGKERELVAAITVSGGSTHYADSVKGRFTISRDNAKNTVYLQMNSLKPEDTAVYYCNARYDVWYYYWGQGTQVTVSS | low polyreactivity |
| QVQLVESGGGLVQAGGSLRLSCAASGAIFFVNDMGWYRQAPGKERELVAAITYSSGGTYYADSVKGRFTISRDNAKNTVYLQMNSLKPEDTAVYYCAVDFFLSYYSDMDYWGQGTQVTVSS | low polyreactivity |
| QVQLVESGGGLVQAGGSLRLSCAASGAIFRYYAMGWYRPAPGKEREFVAAIRGSGGSPYYADSVKGRFTISRDNAKNTVYIQMISLKPEDTAVYYCAARKYSDRQVWYCYWGHGTQVTVSS | high polyreactivity |
| QVQLVESGGGLVQAGGSLRLSCAASGATFRIDAMGWYREAPGKERELVAAIARGGTSTYYADSVKGRFTISRDNAKNTVNLQMNSLKPEDTAVYYCAKRDQDRTFPNGYWGQGTKVTVSS | high polyreactivity |
| QVQLVESGGGLVQAGGSLRLSCAASGATFSYYAMGWYRQAPGKERELVAAISYSGGSTYYADSVKGRFTISRDNAKNTVYLQMNSLKPEDTAVYYCNARDPYYGDPSSLPDTRSRSDYWGQGTQVTVSS | low polyreactivity |
| QVQLVESGGGLVQAGGSLRLSCAASGATFYLNDMGWYREAPGKERELVAAIDWSGGSTYYADSVKGRFTISRDNAKNTVYLQMNSLKPEDTAVYYCAARLVYEWRRLDYFIAWDYCGQGTQVTVSS | low polyreactivity |
| QVQLVESGGGLVQAGGSLRLSCAASGCIFRYYAMGWYRQAPGKERELVAAISWGGGSTYYADSVKGRCTISRDNAKNTVYLQINSLKPEDTAVYYCNTYTYAWSRSKRGYWGQGTQVTVSS | high polyreactivity |
| QVQLVESGGGLVQAGGSLRLSCAASGCIFSDSTMGWYRQAPGKERELVAAISGIGGSTYYADSVKGRFTISRDNAKNTVYLQMNSLKPEDTAVYYCAADDYYYPYVSHDYWGQGTQVTVSS | low polyreactivity |
| QVQLVESGGGLVQAGGSLRLSCAASGCIFYPYAMGWYRQAPGKERELVAAITYSGGSTYADSVKGRFTISRDNAKNTVYLQMNSLKPEDTAVYYCNAKFYFYGGTYIVKYDYWGQGTQVTVSS | high polyreactivity |
| QVQLVESGGGLVQAGGSLRLSCAASGCTSTSNAMGWYRQAPGKERELVALISSGGSTYYAVSVKGRFTISRDNAKNTVYLQMNSLKQEDTAVYYCAARRGTGSYSYRYPYGYDYWGQGTQVTVSS | low polyreactivity |
| QVQLVESGGGLVQAGGSLRLSCAASGFAFSYYAMGWYRQAPGKEREFVASIDWSGGSTYYADSVKGRFTISRDNAKNTVYLQMNSLKAEDTAVYYCAAELDYFPGYDYWGQGTQVTVSS | low polyreactivity |
| QVQLVESGGGLVQAGGSLRLSCAASGFICGYYAMGWYRQAPGKERELVADISRGGNTNYAESVKGRFTISRDNAKNSVYLQMNSLKPEDTAVYYCARYRRGKMDYWGQGTQVTVSS | high polyreactivity |
| QVQLVESGGGLVQAGGSLRLSCAASGFIFAANAMGRYRQAPGKEREMVAAISESGGSTYYADSVKGRFTISRDNAKNTVYLQLNSLKPEDTAVYYCNADIVWSPVLGEYYYWGQGTQVTVSS | high polyreactivity |
| QVQLVESGGGLVQAGGSLRLSCAASGFIFAAYAMGWYRQAPGKERELVAAITWDGGSTYYADSVKGSFTISRDNAKNTVYLQMNSLKPEDTAVYYCAARRRHGYDYWGQGTQVTVSS | high polyreactivity |
| QVQLVESGGGLVQAGGSLRLSCAASGFIFAFYARGWYRQAPGKERELVASISRRSGSTYYADSVKGRFTISRDNAKNNVYLQMNSLKPEDTAVYYCSADRPPWETYGYDYWGQGTQVTVSS | low polyreactivity |
| QVQLVESGGGLVQAGGSLRLSCAASGFIFAGYVMGWSRQAPGKERELVAAISSGGRTYYADSVKGRFTISRDNAKNTVYLQMNSLKPEDTAVYYCAAARWQVRATEGNYWGQGTQVTVSS | high polyreactivity |
| QVQLVESGGGLVQAGGSLRLSCAASGFIFANNAMGWYRQAPGKERELVAAITSRGASTYYADSVKGRFTISRDNAKNTVYLQMNSLKPEDTAVYYCAKATYHYRRYYWGQGTQVTVSS | high polyreactivity |
| QVQLVESGGGLVQAGGSLRLSCAASGFIFANNAMVWYRQAPGKERELVAVISQRGGRTYYADSVKGRFTISRDNAKNTVYLQMNSLKPADTAVYYCAASYSIAYVSPRNWHDYWGQGTQVTVSS | low polyreactivity |
